US7648964B2, “Use of lacritin in promoting ocular cell survival” (University of Virginia Patent Foundation, priority 2004, dated 2010)

T1: syndecan-1 (Homo sapiens, UniProt P18827)
T1 construct: expressed in transfected cells; host or cells: HEK293 (syndecan-1); E. coli ER2566 (lacritin-intein)
T1 sequence (P18827 23-310): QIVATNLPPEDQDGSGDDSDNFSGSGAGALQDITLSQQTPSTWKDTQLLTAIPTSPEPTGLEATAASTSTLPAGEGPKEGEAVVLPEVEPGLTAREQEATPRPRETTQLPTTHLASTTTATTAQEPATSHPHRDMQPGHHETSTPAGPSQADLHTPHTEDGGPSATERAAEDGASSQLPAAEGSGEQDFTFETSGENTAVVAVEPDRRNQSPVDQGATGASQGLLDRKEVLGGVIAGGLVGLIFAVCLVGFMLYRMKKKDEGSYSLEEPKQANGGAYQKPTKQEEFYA

B1: lacritin: recombinant human lacritin from E. coli; mature 119 residue fragment (SEQ ID NO:10) of native lacritin SEQ ID NO:4 (protein, listed as Homo sapiens)
chain: EDASSDSTGADPAQEAGTSKPNEEISGPAEPASPPETTTTAQETSAAAVQGTAKVTSSRQELNPLKSIVEKSILLTEQALAKAGKGMHGGVPGGKQFIENGSEFAQKLLKKFSLLKPWA

Key:
NFAT = NFAT changes by Western blotting in HSG cells; format: cell-based, human
Source text: There has been more evidence regarding PKC alpha translocation and NFAT activation.

RelA (p65) = assay: Nuclear translocation of NF-kappaB subunit RelA (p65) in HSG cells; format: cell-based, human
Source text: Nuclear translocation of this transcription factor has also been observed after lacritin treatment. Very little RelA was initially observed in the nuclear compartment in resting HSG cells.

syndecan-1 = target: T1, syndecan-1; assay: Pull down binding assay with lysates of transfected cells
Source text: Biotinylated cell surface proteins were applied to lacritin affinity columns. After washing extensively in physiological salt-containing buffer, bound protein was eluted with 1 M NaCl, and identified with avidin-peroxidase using an ECL blot method. In controls, columns lacking lacritin were used. […] 293T cells stably transfected with human syndecan-2 or −4 were kindly provided by Dr. Atsushi Utani (Chiba University). A series of lacritin C-terminal and N-terminal deletion mutants were generated. Pull down binding assays involved incubation of intein-tagged lacritin or intein deletion mutants with lysates of untransfected or transfected cells followed by precipitation and SDS PAGE. Immunolocalization of syndecan-1 in human lacrimal glands was performed using anti-human syndecan-1 antibody (CD138).

[1] = test system: erythroleukemia (K-562) cells; assay: 3H-thymidine uptake mitogenesis assay; format: cell-based, human
Description: (§1) For phosphotyrosine blotting and mitogenesis assays, cells in serum-containing media were seeded overnight in 24-well plates at a density of 0.5×10^5 cells/mm^2 corresponding to 20-30% confluency after cell attachment, incubated in serum-free media without supplements for 24 h (phosphotyrosine) or washed with serum-free media without supplements three times (mitogenesis) and incubated with lacritin (1-1000 nM), or positive controls EGF (1.6 nM) and 10% fetal bovine serum, or negative controls bovine serum albumin or no additive in serum-free media without supplements for the indicated times (phosphotyrosine) or 30 h (mitogenesis). For phosphotyrosine assays, cells were extracted in 1% NP40 containing sodium vanadate (2 mg/ml), DTT (5 mg/ml), protease inhibitors, 50 mM HEPES, 100 mM NaCl, and 2 mM EDTA; then separated by 10% SDS PAGE, transferred and blotted. The following antibodies (Cell Signaling Technology, Beverly Mass.) were tested: antiphosphotyrosine antibody (P-Tyr-100), anti-phospho-PKC αβII, anti-PKCα, anti-phospho-PKCδ, anti-phospho-PKC (pan), anti-p44/42 MAPK, anti-phospho-Raf, anti-phospho-SAPK/JNK, anti-phospho-p38 Map kinase, anti-phospho-Raf, anti-phospho-Akt, anti-phospho-CaMKII, anti-phospho-MARCKS, or anti-tubulin (loading control). After washing, bound antibodies were detected with peroxidase-labeled secondary antibody and ECL. With the exception of at least nine proteins in the P-Tyr-100 blot (FIG. 1), none of the effectors tested above appeared to be phospho-activated during lacritin signaling (not shown). For mitogenesis (Hussaini et al., '00), [^3H]-thymidine (2 mCi/ml) was added for the next 6 h. Incorporation was stopped with ice-cold phosphate buffered saline and followed by addition of cold and then room temperature trichloracetic acid (10%) for 10 min each, washing of cells with phosphate buffered saline, solubilization with 1 N sodium hydroxide, neutralization with 1 N hydrochloric acid, addition of scintillation fluid and then quantitation in a scintillation counter. To deplete PKCα in HSG cells, a pool of four PKCα-specific siRNAs (100 nM) were transfected via LipofectAMINE 2000 in Opti-MEMI Reduced Serum Medium (Invitrogen, Grand Island N.Y.) without serum and antibiotics according to manufacturer's instructions. Each of the four siRNAs was also individually transfected. In negative controls, cells were transfected with a pool of four lamin-specific siRNAs (Upstate LLC, Charlottesville Va.; Dharmacon Inc, Lafayette Colo.). Seventy-two hours post-transfection, mitogenesis was assessed by co-addition of 10 […] lacritin and [^3H]-thymidine (2 mCi/ml) (Amersham, Piscataway N.J.) for 24 hrs. PKCα depletion was confirmed by Western blotting.

melanoma (SK-MEL) cells = assay: 3H-thymidine uptake mitogenesis assay; format: cell-based, human
Description: as §1

cervical (HeLa) cells = assay: 3H-thymidine uptake mitogenesis assay; format: cell-based, human
Description: as §1

[2] = test system: fibrosarcoma (HT1080) cells; assay: 3H-thymidine uptake mitogenesis assay; format: cell-based, human
Description: as §1

[3] = test system: foreskin fibroblast (HS68) cells; assay: 3H-thymidine uptake mitogenesis assay; format: cell-based, human
Description: as §1

[4] = test system: embryonic kidney (HEK) cells; assay: 3H-thymidine uptake mitogenesis assay; format: cell-based, human
Description: as §1

[5] = test system: non-invasive breast carcinoma (MCF7) cells; assay: 3H-thymidine uptake mitogenesis assay; format: cell-based, human
Description: as §1

melanoma (WM-164) cells = assay: 3H-thymidine uptake mitogenesis assay; format: cell-based, human
Description: as §1

Molecule | effect on lacritin-induced changes of NFAT (NFAT) | nuclear RelA at 4 hours (RelA (p65); 4 hours after initial contact with lacritin) | time of peak nuclear RelA (RelA (p65); lacritin treatment) | time to detectable RelA in nucleus (RelA (p65); lacritin treatment) [min] | binding to mammalian syndecan-1 (syndecan-1) | mitogenesis [1] | mitogenesis (melanoma (SK-MEL) cells) | mitogenesis (cervical (HeLa) cells) | mitogenesis [2] | mitogenesis [3] | mitogenesis [4] | mitogenesis [5] | mitogenesis (melanoma (WM-164) cells)
Cn1c2ccccc2c2c3c(c4c5ccccc5n(CCC#N)c4c21)CNC3=O [Go 6976] | abolish changes of NFAT |  |  |  |  |  |  |  |  |  |  |  | 
B1 |  | high level of RelA was still observed | between 15 minutes to 1 hour | 1 | bound | not mitogenic | not mitogenic | not mitogenic | not mitogenic | not mitogenic | mitogenic | not mitogenic | not mitogenic
